Some results are limits rather than exact numbers.

Assay [1] has as its target T1, M2 expressed on MDCK cells infected with influenza A/PR/8/34 (influenza A virus A/PR/8/34, UniProt P06821 1-97).
T1 construct: whole, on cells
The assay is described as follows: cell ELISA, A/PR/8/34-infected MDCK. Background: In an ELISA, binding on a coated surface is turned into a signal by an enzyme label.

In assay [2] the target is T1, M2 expressed on MDCK cells infected …. Briefly: cell ELISA, A/PR/8/34-infected MDCK, Ab 1 µg/ml, competitor M2 peptide 20 µg/ml.
The target is the same in assay [3]. The assay is described as follows: cell ELISA, A/PR/8/34-infected MDCK, Ab 1 µg/ml, no peptide.
The target is the same in assay [4]. The assay is described as follows: cell ELISA on infected MDCK cells.

T1 sequence (P06821 whole entry): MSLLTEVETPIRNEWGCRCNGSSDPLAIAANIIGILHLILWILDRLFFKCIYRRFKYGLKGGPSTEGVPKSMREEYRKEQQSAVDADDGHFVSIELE

B1: N547 (antibody, V domains shown)
VH: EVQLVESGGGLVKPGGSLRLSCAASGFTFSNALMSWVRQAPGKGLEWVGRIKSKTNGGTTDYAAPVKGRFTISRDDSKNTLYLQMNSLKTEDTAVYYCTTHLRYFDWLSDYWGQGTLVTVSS
VL: QSVLTQPPSMSAAPGQKVTISCSGSSSNIGNNYISWYQQLPGTAPKVLIYDNNKRPSGIPDRFSGSKSGTSATLGITGLQTGDEADYYCGSWDSSLSAGVFGTGTKVTVLG
As for B1, in assay [1], the “fold greater reactivity than F1 and F2” value is greater than 100 fold. Also, the OD450 with competitor in assay [2] stood at 0.062 OD450. This molecule also displayed an OD450 in assay [3] of 0.504 OD450. Further, the EC50 (commonly the concentration giving half of the maximal effect) in assay [4] was 0.104 µg/mL.

B2: L66 (antibody, V domains shown)
VH: EVQLVESGGGVVRPGGSLRLSCAASGFTFDDYGMSWVRQAPGKGLEWVSGINWNGGSTGYADSVKGRFTISRDNAKNSLYLQMNSLRAEDTALYYCARDRVTMVRGVIMDYYGMDVWGQGTTVTVSS
VL: QTVVTQEPSLTVSPRGTVTLTCSSSTGAVTSGYYPGWFQLKPGQAPMSLIYSARKKHSWTPARFSGSLLGGKAALTLSGVQPEDEAEYYCLLYYGGAYVFGTGTKVTVLG
B2: in assay [1], the “fold greater reactivity than F1 and F2” value was greater than 100 fold. Moreover, the OD450 with competitor in assay [2] came out at 0.113 OD450. Besides, the OD450 in assay [3] was 0.931 OD450. In assay [4], this molecule showed an EC50 of 0.117 µg/mL.

B3: C40G1 (antibody, V domains shown)
VH: QLQLQESGPGLVKPSETLSLTCTVSGGSISSSFYYCGWIRQPPGKGLEWIGSIYYRGSTYYNPSLKSRVTISVDTSKNQFSLKLSSVTAADTAVYYCARRVTMVRGVKGDYFDYWGQGTLVTVSS
VL: DIQMTQSPSSLSASVGDRVTITCRASQGISSWLAWYQQKPEKVPKSLIYAASSLQSGVPSRFSGSGSGTDFTLTISSLQPEDFATYYCQQYNYYPLTFGGGTKVEIKR
On to B3, for which the “fold greater reactivity than F1 and F2” value in assay [1] was greater than 100 fold. Besides, in assay [2], the OD450 with competitor was found to be 0.195 OD450. In assay [3], the OD450 was found to be 0.799 OD450. Also, the midpoint of the response in assay [4], the EC50, lay at 0.183 µg/mL.

B4: C40G4 (antibody, V domains shown)
VH: QLQLQESGPGLVKPSETLSLTCTVSGGSISSSFYYCGWIRQPPGKGLEWIGSIYYRGSTYYNPSLKSRVTISVDTSKNQFSLKLSSVTAADTAVYYCARRVTMVRGVKGDYFDYWGQGTLVTVSS
VL: DIQMTQSPSSLSASVGDRVTITCRASQGISSWLAWYQQKPEKVPKSLIYAASSLQSGVPSRFSGSGSGTDFTLTISSLQPEDFATYYCQQYNYYPLTFGGGTKVEIKR
In turn, B4 yielded an EC50 in assay [4] of 0.301 µg/mL.

The values are drawn from patent US20090162366A1 (KIRIN PHARMA, published 2009).
